# Data taken from IntAct's records for PubMed 10613896.
# B1: Arf-GAP domain and FG repeat-containing protein 1 (Homo sapiens), P52594 (parent)
# chain: MAASAKRKQEEKHLKMLRDMTGLPHNRKCFDCDQRGPTYVNMTVGSFVCTSCSGSLRGLNPPHRVKSISMTTFTQQEIEFLQKHGNEVCKQIWLGLFDDRSSAIPDFRDPQKVKEFLQEKYEKKRWYVPPEQAKVVASVHASISGSSASSTSSTPEVKPLKSLLGDSAPTLHLNKGTPSQSPVVGRSQGQQQEKKQFDLLSDLGSDIFAAPAPQSTATANFANFAHFNSHAAQNSANADFANFDAFGQSSGSSNFGGFPTASHSPFQPQTTGGSAASVNANFAHFDNFPKSSSADFGTFNTSQSHQTASAVSKVSTNKAGLQTADKYAALANLDNIFSAGQGGDQGSGFGTTGKAPVGSVVSVPSQSSASSDKYAALAELDSVFSSAATSSNAYTSTSNASSNVFGTVPVVASAQTQPASSSVPAPFGATPSTNPFVAAAGPSVASSTNPFQTNARGATAATFGTASMSMPTGFGTPAPYSLPTSFSGSFQQPAFPAQAAFPQQTAFSQQPNGAGFAAFGQTKPVVTPFGQVAAAGVSSNPFMTGAPTGQFPTGSSSTNPFL
# partner: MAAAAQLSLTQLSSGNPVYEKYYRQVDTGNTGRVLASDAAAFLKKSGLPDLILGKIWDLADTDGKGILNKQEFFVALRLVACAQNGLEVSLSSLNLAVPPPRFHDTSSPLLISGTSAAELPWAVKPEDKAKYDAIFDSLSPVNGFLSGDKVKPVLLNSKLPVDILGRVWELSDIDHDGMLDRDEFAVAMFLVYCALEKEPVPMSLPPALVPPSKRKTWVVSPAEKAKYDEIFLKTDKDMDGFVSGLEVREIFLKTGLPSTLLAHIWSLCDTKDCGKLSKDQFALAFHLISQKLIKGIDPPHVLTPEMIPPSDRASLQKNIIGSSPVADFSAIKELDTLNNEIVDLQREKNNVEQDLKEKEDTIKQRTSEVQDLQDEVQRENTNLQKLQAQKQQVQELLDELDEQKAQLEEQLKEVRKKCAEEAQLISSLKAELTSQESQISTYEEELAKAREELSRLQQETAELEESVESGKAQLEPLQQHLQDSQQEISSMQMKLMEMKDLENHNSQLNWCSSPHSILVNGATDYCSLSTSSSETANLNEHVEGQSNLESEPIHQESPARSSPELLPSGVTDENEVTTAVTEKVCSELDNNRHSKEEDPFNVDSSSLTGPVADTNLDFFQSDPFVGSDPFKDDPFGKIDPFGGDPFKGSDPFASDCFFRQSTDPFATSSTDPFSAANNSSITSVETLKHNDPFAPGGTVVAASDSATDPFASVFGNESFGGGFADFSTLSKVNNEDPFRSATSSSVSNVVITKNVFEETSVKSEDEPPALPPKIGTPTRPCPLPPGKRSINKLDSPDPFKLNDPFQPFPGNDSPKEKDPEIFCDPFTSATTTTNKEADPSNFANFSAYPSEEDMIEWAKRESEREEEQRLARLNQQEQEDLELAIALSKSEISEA
# Variants of: B1
# Settings: with eps15_human EPS15, P42566
row,effect of a mutation on the interaction,Variant
1,disrupting interaction,MAASAKRKQEEKHLKMLRDMTGLPHNRKCFDCDQRGPTYVNMTVGSFVCTSCSGSLRGLNPPHRVKSISMTTFTQQEIEFLQKHGNEVCKQIWLGLFDDRSSAIPDFRDPQKVKEFLQEKYEKKRWYVPPEQAKVVASVHASISGSSASSTSSTPEVKPLKSLLGDSAPTLHLNKGTPSQSPVVGRSQGQQQEKKQFDLLSDLGSDIFAAPAPQSTATANFANFAHFNSHAAQNSANADFANFDAFGQSSGSSNFGGFPTASHSPFQPQTTGGSAASVNANFAHFDNFPKSSSADFGTFNTSQSHQTASAVSKVSTNKAGLQTADKYAALANLDNIFSAGQGGDQGSGFGTTGKAPVGSVVSVPSQSSASSDKYAALAELDSVFSSAATSSNAYTSTSNASSNVFGTVPVVASAQTQPASSSVPAPFGATPSTNPVVAAAGPSVASSTNPVQTNARGATAATFGTASMSMPTGFGTPAPYSLPTSFSGSFQQPAFPAQAAFPQQTAFSQQPNGAGFAAFGQTKPVVTPFGQVAAAGVSSNPVMTGAPTGQFPTGSSSTNPVL [F436V;F451V;F542V;F561V]
